Measurements as given in paper PMC10288612.

B1: dimer (ssDNA)
DNA: TTTTTTGCAGCGGTGTGGGGGCAGCGGTGTGGGG
B2: monomer-T (monomer-9T) (ssDNA)
DNA: TTTTTTTTTGCAGCGGTGTGGGG
B3: monomer (ssDNA)
DNA: GCAGCGGTGTGGGG
B4: trimer (ssDNA)
DNA: GCAGCGGTGTGGGGGCAGCGGTGTGGGGGCAGCGGTGTGGGGTTTTT

Biological target: HER-2/neu extracellular domain (ErbB2) (human, UniProt P04626 23-652)
Experiment: electrochemical bead sandwich assay

Binder | Kd
B1 | 0.0374 pM
B2 | 0.085 pM
B3 | 0.121 pM
B4 | 0.0261 pM
